# Values of other authors, collected in PMC3137898.
# Target: syntrophin PDZ (Mus musculus) (UniProt Q61234)
# Sequence (Q61234 78-167): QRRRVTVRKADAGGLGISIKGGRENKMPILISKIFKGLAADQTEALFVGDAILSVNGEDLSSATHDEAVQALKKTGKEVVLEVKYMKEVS
# neuronal nitric oxide synthase PDZ, sequence (P29476 14-102): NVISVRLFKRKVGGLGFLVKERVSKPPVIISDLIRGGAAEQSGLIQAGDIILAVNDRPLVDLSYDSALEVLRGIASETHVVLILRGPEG
substance,measurement,value
neuronal nitric oxide synthase PDZ (from UniProt P29476),Kd,600 nM
